Laboratory results taken from patent US20200024330A1.

What was measured:
Assay in all cases: cell-based or functional assay
[1] = target: HIV-1 Env of isolate MGRM-Chronic-B-003 (HIV-1)
[2] = target: HIV-1 Env of isolate MGRM-C-010 (HIV-1)
[3] = target: HIV-1 JR-CSF Env V182A (HIV-1 (isolate JR-CSF)) (UniProt P20871)
[4] = target: HIV-1 Env of isolate MGRM-F1-014 (subtype F), on pseudovirus (HIV-1)
[5] = target: HIV-1 Env of isolate QH0692.42 (HIV-1)
[6] = target: HIV-1 Env of isolate MGRM-F1-006 (subtype F), on pseudovirus (HIV-1)
[7] = target: HIV-1 Env of isolate MGRM-D-003 (HIV-1)
[8] = target: HIV-1 JR-CSF Env I165A (HIV-1 (isolate JR-CSF)) (UniProt P20871)
[9] = target: HIV-1 JR-CSF Env E172A (HIV-1 (isolate JR-CSF)) (UniProt P20871)
[10] = target: HIV-1 Env of isolate VLGCB3 (HIV-1)
[11] = target: HIV-1 JR-CSF Env N188A (HIV-1 (isolate JR-CSF)) (UniProt P20871)
[12] = target: HIV-1 Env of isolate MG RM-A-006 (HIV-1)
[13] = target: HIV-1 Env of isolate MGRM-C-027 (HIV-1)
[14] = target: HIV-1 Env of isolate 92UG005 (HIV-1)
[15] = target: HIV-1 Env of isolate MGRM-Chronic-B-001 (HIV-1)
[16] = target: HIV-1 Env of isolate MGRM-A-011 (clade A), on pseudovirus (HIV-1)
[17] = target: HIV-1 Env of isolate MGRM-F1-004 (subtype F), on pseudovirus (HIV-1)
[18] = target: HIV-1 Env of isolate MGRM-AE-005 (CRF01_AE), on pseudovirus (HIV-1)
[19] = target: HIV-1 Env of isolate MGRM-D-021 (HIV-1)
[20] = target: HIV-1 Env of isolate MGRM-AG-002 (CRF_AG), on pseudovirus (HIV-1)
[21] = target: HIV-1 Env of isolate MGRM-AG-003 (CRF_AG), on pseudovirus (HIV-1)
[22] = target: HIV-1 Env of isolate MGRM-C-017 (HIV-1)
[23] = target: HIV-1 Env of isolate MGRM-D-002 (HIV-1)
[24] = target: HIV-1 Env of isolate 92WR026 (HIV-1)
[25] = target: HIV-1 Env of isolate PVO.4 (HIV-1)
[26] = target: HIV-1 MGRM-Chronic-B-001 Env (pseudovirus) (HIV-1)
[27] = target: HIV-1 Env of isolate MGRM-F1-023 (HIV-1)
[28] = target: HIV-1 Env of isolate MGRM-C-010 (pseudovirus) (HIV-1 isolate MGRM-C-010, subtype C)
[29] = target: HIV-1 Env of isolate MG RM-D-004 (subtype D) (HIV-1)
[30] = target: HIV-1 Env of isolate MGRM-C-007 (pseudovirus) (HIV-1 isolate MGRM-C-007, subtype C)
[31] = target: HIV-1 92BR020 Env (pseudovirus) (HIV-1)
[32] = target: HIV-1 Env of isolate MGRM-F1-020 (HIV-1)
[33] = target: HIV-1 Env of isolate MGRM-F1-016 (HIV-1)
[34] = target: HIV-1 Env of isolate MG RM-D-019 (subtype D) (HIV-1)
[35] = target: HIV-1 Env of isolate MGRM-AE-003 (HIV-1)
[36] = target: HIV-1 94UG103 envelope glycoprotein (Env) (HIV-1)

5345_I01 (PGT-137) (antibody), sequence (VH): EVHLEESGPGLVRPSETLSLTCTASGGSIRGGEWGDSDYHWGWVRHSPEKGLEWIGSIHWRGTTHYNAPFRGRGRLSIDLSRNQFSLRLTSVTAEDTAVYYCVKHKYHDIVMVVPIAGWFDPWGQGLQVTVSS
5345_I01 (PGT-137) (antibody), sequence (VL): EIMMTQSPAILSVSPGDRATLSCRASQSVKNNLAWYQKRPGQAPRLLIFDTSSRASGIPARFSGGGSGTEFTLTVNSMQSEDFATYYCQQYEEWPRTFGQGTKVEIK

For 5343_B08 (PGT-135) (antibody), the IC50 [1] was > 50 mg/L, the IC50 [2] was > 50 mg/L and the Fold IC50 increase relative to wild-type [3] was 1.5 fold. The IC50, pseudovirus neutralization [4] was > 50 mg/L, the IC50 [5] was > 50 mg/L and the IC50, pseudovirus neutralization [6] was > 50 mg/L. For the same substance, the IC50 [7] was > 50 mg/L, the Fold IC50 increase relative to wild-type [8] was 4 fold and the Fold IC50 increase relative to wild-type [9] was 1.3 fold. The IC50 [10] was 0.142 mg/L, the Fold IC50 increase relative to wild-type [11] was 0.4 fold and the neutralization IC50 [12] was > 50 mg/L. For the same substance, the IC50 [13] was > 50 mg/L, the IC50 [14] was > 50 mg/L and the IC50 [15] was > 50 mg/L. For the same substance, the IC50, single-round pseudovirus neutralization [16] was > 50 mg/L, the IC50, pseudovirus neutralization [17] was 0.211 mg/L and the IC50, single-round pseudovirus neutralization [18] was > 50 mg/L. The IC50 [19] was > 50 mg/L, the IC50, single-round pseudovirus neutralization [20] was > 50 mg/L and the IC50, single-round pseudovirus neutralization [21] was > 50 mg/L. For the same substance, the IC50 [22] was > 50 mg/L, the IC50 [23] was > 50 mg/L and the neutralization IC50 [24] was 0.068 mg/L. The IC50 [25] was > 50 mg/L.
For 5141_B17 (PGT-126) (antibody), the IC50, pseudovirus neutralization [26] was > 50 mg/L, the IC50 [27] was 0.009 mg/L and the Fold IC50 increase relative to wild-type [3] was 1.4 fold. For the same substance, the IC50 (µg/mL) neutralization [28] was > 50 µg/mL, the IC50 (µg/mL), pseudovirus neutralization [29] was > 50 µg/mL and the Fold IC50 increase relative to wild-type [8] was 2.5 fold. For the same substance, the Fold IC50 increase relative to wild-type [9] was 0.7 fold, the Fold IC50 increase relative to wild-type [11] was 0.8 fold and the IC50 (µg/mL) neutralization [30] was 25.3 µg/mL. It also gave an IC50 [31] of 0.0163 mg/L, an IC50, pseudovirus neutralization [31] of 0.015 mg/L and an IC80 [31] of 0.0457 mg/L. The IC90 [31] was 0.0846 mg/L, the IC95 [31] was 0.152 mg/L and the IC50 [32] was > 50 mg/L. For the same substance, the IC50 [33] was > 50 mg/L and the IC50 (µg/mL), pseudovirus neutralization [34] was > 50 µg/mL.
5123_A06 (PGT-125) (antibody) was tested, and the IC50, pseudovirus neutralization [26] was > 50 mg/L, the IC50 [27] was 0.12 mg/L and the Fold IC50 increase relative to wild-type [3] was 1.3 fold. The IC50 (µg/mL) neutralization [28] was > 50 µg/mL, the IC50 (µg/mL), pseudovirus neutralization [29] was 0.371 µg/mL and the Fold IC50 increase relative to wild-type [8] was 2.3 fold. The Fold IC50 increase relative to wild-type [9] was 1.8 fold, the Fold IC50 increase relative to wild-type [11] was 0.7 fold and the IC50 (µg/mL) neutralization [30] was > 50 µg/mL. For the same substance, the IC50, pseudovirus neutralization [31] was 0.016 mg/L, the IC50 [32] was > 50 mg/L and the IC50 [33] was > 50 mg/L. It also gave an IC50 (µg/mL), pseudovirus neutralization [34] of 0.049 µg/mL.
With PGT-122 (antibody) the IC50 (µg/mL), pseudovirus neutralization [35] was > 50 µg/mL, the IC50 neutralization [36] was 1.46 mg/L and the IC50 (µg/mL), pseudovirus neutralization [24] was 0.036 µg/mL.
In the case of 5345_I01 (PGT-137) (antibody), the IC50 [1] is reported as > 50 mg/L, the IC50 [2] is reported as > 50 mg/L and the IC50, pseudovirus neutralization [4] is reported as > 50 mg/L. For the same substance, the IC50 [5] was > 50 mg/L, the IC50, pseudovirus neutralization [6] was > 50 mg/L and the IC50 [7] was > 50 mg/L. For the same substance, the IC50 [10] was 3.36 mg/L, the neutralization IC50 [12] was > 50 mg/L and the IC50 [13] was > 50 mg/L. The IC50 [14] was > 50 mg/L, the IC50 [15] was > 50 mg/L and the IC50, single-round pseudovirus neutralization [16] was > 50 mg/L. The IC50, pseudovirus neutralization [17] was 40.3 mg/L, the IC50, single-round pseudovirus neutralization [18] was > 50 mg/L and the IC50 [19] was > 50 mg/L. For the same substance, the IC50, single-round pseudovirus neutralization [20] was > 50 mg/L, the IC50, single-round pseudovirus neutralization [21] was > 50 mg/L and the IC50 [22] was > 50 mg/L. For the same substance, the IC50 [23] was > 50 mg/L and the neutralization IC50 [24] was 0.092 mg/L.
In the case of PGV04 (antibody), the IC50 (µg/mL), pseudovirus neutralization [35] is reported as 6.4 µg/mL, the IC50 (µg/mL), pseudovirus neutralization [7] is reported as > 50 µg/mL and the IC50 (µg/mL), pseudovirus neutralization [14] is reported as 0.44 µg/mL. The IC50 (µg/mL), pseudovirus neutralization [19] was > 50 µg/mL, the IC50 (µg/mL), pseudovirus neutralization [33] was 0.268 µg/mL and the IC50 (µg/mL), pseudovirus neutralization [23] was 0.322 µg/mL.
For 4858_P08 (PGT-123) (antibody), the IC50, pseudovirus neutralization [26] was 0.15 mg/L, the IC50 [27] was 0.053 mg/L and the Fold IC50 increase relative to wild-type [3] was 2.8 fold. For the same substance, the IC50 (µg/mL) neutralization [28] was > 50 µg/mL, the IC50 (µg/mL), pseudovirus neutralization [29] was > 50 µg/mL and the Fold IC50 increase relative to wild-type [8] was 2.2 fold. For the same substance, the Fold IC50 increase relative to wild-type [9] was 1.1 fold, the Fold IC50 increase relative to wild-type [11] was 1.1 fold and the IC50 (µg/mL) neutralization [30] was 0.547 µg/mL. For the same substance, the IC50, pseudovirus neutralization [31] was 0.008 mg/L, the IC50 [32] was 0.051 mg/L and the IC50 [33] was 4.95 mg/L. For the same substance, the IC50 (µg/mL), pseudovirus neutralization [34] was > 50 µg/mL.
VRC01 (antibody) gave an IC50 [1] of 0.1 mg/L, an IC50, pseudovirus neutralization [27] of 0.392 mg/L and a neutralization IC50 [5] of 1.19 mg/L. The neutralization IC50 [10] was 0.108 mg/L, the IC50 [15] was 0.066 mg/L and the IC50, pseudovirus neutralization [32] was 1.89 mg/L. It also gave an IC50, pseudovirus neutralization [19] of 33.4 mg/L, an IC50, pseudovirus neutralization [33] of 0.517 mg/L and a neutralization IC50 [25] of 0.218 mg/L.
